# From paper PMC5443830
# Target: Cry1AcMod activated toxin (Bacillus thuringiensis) (UniProt P05068)
# Assay: SDS-PAGE and western blot of the 200 kDa oligomer band
substance,measurement,value
Cry1AcMod activated toxin (from UniProt P05068 1-1178) (domain or fragment),optical density of the 200 kDa oligomer band with BBMV from the resistant strain relative to BBMV from the susceptible strain (=100%),100%
